Results: the RNAGym collection of RNA variant scans (doi:10.1073/pnas.2313332121)
This sample holds only a part of the variants without activity.

B1: TPR 5TU (parent)
chain: GGAUCUUCUCGAUCUAACAAAAAAGACAAAUCUGCCACAAAGCUUGAGAGCAUCUUCGGAUGCAGAGGCGGCAGCCUUCGGUGGCGCGAUAGCGCCAACGUUCUCAACUAUGACACGCAAAACGCGUGCUCCGUUGAAUGGAGUUUAUCAUG

Variants of: B1
Test: polymerase ribozyme fitness, log enrichment relative to wild type (log ratio); higher = more active; in vitro selection for triplet polymerase activity
Outline: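 The heterodimeric triplet polymerase ribozyme's subunits were each mutagenized into PCR-built libraries and transcribed. Every library was selected once, in triplicate, by annealing with a biotinylated primer, the partner subunit and triplets, incubating frozen at −7 °C, gel-excising extended constructs, capturing on streptavidin beads and running RT-PCR. Input and output libraries were Illumina-sequenced, with genotypes kept only at ≥10 input reads and ≥1 read per output. Fitness, from inverse-variance-weighted replicate averages, is the base-2 logarithm of genotype enrichment over wild-type enrichment.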

Variant | polymerase ribozyme fitness (log ratio)
GGAUCUUCUCGAUCUAACAAAAAAGACAAAUCUGCCACAAAGCUUGAACGCAACUUCGGAUGCAGAGGCGGCAGCCUUCGGUGGCGCGAUAGCGCCAACAUUCUCAACUAUGACACGCAAAACGCGUGCUCCGUUGAAUGGAGUUUAUCAUG [G48A A49C U53A G100A] | ≤ -4.2
GGAUCUUCUCGAUCUAACAAAAAAGCCAAAUCUGCCACAAAGCUUGAGAGCAUCUUCGGAUGCAGAGGCGGCAGCCUUCGGUGGCGCGAUACCGCCAACGUUCUCAACUAUGACACGCAAAACGCGUGCUCCGUUGAAUGGAGUUUAUCAUG [A26C G92C] | -2.71
GGAUCUUCUCGAUCUAACAAAAAAGACAAAUCUGCCACAAAGCUUGAGAGCAUCUUCGGAUGCAGAGGUGGCAGUCUUCGGUGGCGCGAUAACGCCAACGUUCGCAACUAUGACACGCAAAACGCGUGCUCCUUUGAAUGGAGUUUAUUAUG [C69U C75U G92A U104G G133U C149U] | ≤ -4.2
GGAUCUUCUCGAUCUAACAAAAAAGACAAGUCUGCCACAAAGCUUGAAAGCAUUUUCGGAUGCAGAGGCGGCAGCCUUCGGUGGUGCGAUAGCGCCAACGUUCUCAACUAUGACACGCAAAACGCGUGCUCCGUUGAAUGGAGUUUAUCAUG [A30G G48A C54U C85U] | ≤ -4.2
GGAUCUUCUCGAUCUAACAAAAAAGACAAAUCUGCCACAAAGCUUGAGAGCAUCUUCGGAUGCAGAGGCGGCAGCCUUCGGUGGCGCGAUAGCGCCUAGGUUCUCAACUAUGACACGCAAAACGCGUGCUCCGUUGAAUGGAGUUUAUCAUG [A97U C99G] | -1.6
GGAUCUUAUCGAUCUAACAAAAAAGACAAAUCUGCCACAACGCUUGAGAGCAUCUUCGGAUGCAGUGGAGGCAGCCCUCGGUCGCGCGAUAGCGCCAACGUUCUCAACUAUGACACGCAAAACGCUUGCGCCGUUGAAUGCAGUUUAUCAUC [C8A A41C A66U C69A U77C G83C G126U U130G G141C G152C] | ≤ -4.2
GGAUCUUCUCGAUCUAACAAAAAAUACAAAUCUGCCACAAAGCUUGAGAGCAUCUUCGGAUGCAGAGGCGGCAGCCUUCGGUGACGCGAUAGCGCCAACGUUCUCAACUAUGACACGCAAAACGCGUGCUUCGUUAAAUGGAGGUUAUCAUG [G25U G84A C131U G136A U144G] | -1.89
GGAUCUUCUCGAUCUAACAAAAAAGACAAAUCUGCCACAAAGCUUGAGACCAUCUUCGGAUGCAGAGGCGGCAGCCUUCGGUGGCGCGAUAGCGCCAACGUUCCCAACUAUGACAAGCAAAACGCGUGCUCCGUUGAAUGGAUUUUAUCAUG [G50C U104C C116A G143U] | ≤ -4.2
GGAUCUUCUCGAUCUAACAAAAAAGACAAAUCUGCCACAAAGCUUGAGAGCAUCUUCGGAUGCAGAGGCGGCAGCCUUCGGUGGCGCGAUAGCGCUAACGUUCUCAACUAUGUCACGCAAAACUCGUGCUCCGUUGAAUGGAGUUUAUCAUG [C96U A113U G124U] | -2.41
GGAUCUUCUCGAUCUAACACAAAAGACAAAUCUGCCACAAAGCUUGAGAGCAUCUUCGGAUGCAGAGGCGGCAGCCUUCGGUGGCGCGAUAGCACCAACGUUCUCAACUAUGACACGCAAAACGCGUGCUCCGUUUAAUGGAGUUUAUCAUG [A20C G94A G136U] | -3.83
GGAUCUUCUCGAUCUAACAAAAAAGACAAAUCUGCCACAAAGCUUGAGAGCAUCUUCGGAUGCAGAGGCGGCAGCCUUCGGUGGGGCGAUAGCGCCAGCGUUCUCAACUAUGACACGCAAAACGCGUGCUCCGUUGAAUGGAGGUUAUCAUG [C85G A98G U144G] | -0.337
GGAUCUUCUCGAUCUAAACAAAAAGACAAAUCUGACACAAAGCUUGAGAGCAUCUUCGGAUGCAGAGGCGGCAGCCUUCGGUGGCGCGAUAGCGCCAACGUUCUCAACUAUGACACGCAAAACGCGUGCUCCGUUGAAUGGAGUUUAUCAUG [C18A A19C C35A] | -2.88
GGAUCUUCUCGAUCUAACAAAAAAGACAAAUCUGCCACAAAGCUUGAAAGCAUCUUCGGAUGCAGAGGCGGCAGUCUUCGGUGGCGAGAUAGGGCCAACGUUCUCAACUAUGACACGCAAAACGCGUGCUCCGUUGAAUGGAGUUUAUCAUG [G48A C75U C87A C93G] | ≤ -4.2
GGAUCUUCUCGAUCUAACAAAAAAGACAAAUCUGCCACAAAGCUUGUGAGCAUUUUCGGAUGCAGAGGCGGCAGCCUUCGGUGGCGCGAUAGUGCCAACGUUCUCAACUAUGACACGCAAAACGCGUGCUCCGUUGAAUGGAGUUUAUCAUG [A47U C54U C93U] | -2.08
GGAUCUUCUCGAUCUAACAAAAAAGACAAAUCUGCCACAAAGCUUGAGAGCAUCUUCGGAUGCAGAGGCGGCAGCCUUCGGUGGCGCCAUAGCGCCAACGUUCUCAACUAUGACUCGCAAAACGCGUGCUCCGUUGAAUGGAGUUUAUCAUG [G88C A115U] | ≤ -4.2
GGAUCUUCUCGAUCUAACAAAAAAGACAAAUCUGCCACAAAGCUUGAGAGCAUCUUCGGAUGCAGAGGCGGCAGCGUUCGGUGGCGCGAUAGCGCCAACGUUCUCAACUAUGACACGCAAAACGCGUGCUCCGUUGAAUUGAGUUUAUCAGG [C76G G140U U151G] | ≤ -4.2
GGAUCUUCUCGAUCUAACAAAAAAGACAAAUCUGCCACAACGCUUGAGAGCAUCUUCGGAUGCAGAGGCGGCAGCCUUCGGUGGCGCGAUGGCGCCAACGUUCUCAACUAUGACACGCAAAACGCGUGCUCCGUUGAAUGGAGUUUAUCAUG [A41C A91G] | -2.85
GGAUCUUCUCGAUCUAACAAAAAAGACAAAUCUGCCACAAAGCUUGAGAGCCACUUCGGAUGCAGAGGCGGCAGCCUUCGGUGGCGCGAUAGCGCCAACGUUCUCAACUAUGACACGCAAAACGCGUGCUCCGUUGAAUGGAGUUUAUCAUG [A52C U53A] | -3.29
GGAUCUUCUCGAUCUAACAAAAAAGACAAAUCUGCCACAAAGCUUGAGAGCAUCUUCGGAUGCAGAGGCGGCAGCCUUCGGUGGCGCGGUAUCGCCAACGUUCUCAACUAUGACACGCAAAACGCGUGCUCCGUUGAAUGGAGUUUAUCAUG [A89G G92U] | -2.48
